Where two headings read alike, the source gives them in different places.
How the values were obtained:
PC3 cells = test: Photobleaching FP or FP fusions in mammalian cells; type: cell-based; details: for t50%, time to bleach for 50% emission intensity / A1, Double Exportential Decay Fit / A2, Double Exportential Decay Fit / A, Single Exponential Decay Fit / k1, Double Exportential Decay Fit / k2, Double Exportential Decay Fit / k, Single Exponential Decay Fit: PC3 cells; for t50%, time to bleach for 50% emission intensity: 25 μM BV or 1 μM BVMe2 for 4 h; for A1, Double Exportential Decay Fit / A2, Double Exportential Decay Fit / A, Single Exponential Decay Fit / k1, Double Exportential Decay Fit / k2, Double Exportential Decay Fit / k, Single Exponential Decay Fit: photobleaching; for mammalian cell photostability t50%: time to bleach 50% from an initial emission rate of 1,000 photons per s
Protocol: PC3 cells were transfected with 2 μg of circular DNA+5 μl Lipofectamine 2000 (Life Technologies) in 2 ml Opti-MEM (Life Technologies) for 4-5 h, transfection media was discarded, prewarmed growth media was added, and protein was produced for 48 h. 25 μM BV or 1 μM BVMe2 was incubated for 4 h. Cells were photobleached with continuous light exposure from a 150 W xenon arc lamp with eGFP EX/EM=495(10)/535(25) nm, tdTomato EX/EM=540(25)/595(50) nm, mCherry EX/EM=580(20)/[…] nm, and smURFP EX/EM=628(40)/680(30) nm focused with a 40×, 1.2 numerical aperture C-Apochromat oil-immersion lens on aZeiss Axiovert 200M inverted microscope. Photobleaching times were normalized to reflect an initial illumination intensity producing 1,000 photons per fluorescent molecule per second as previously described^37. Data was fit to a single exponential decay (F=A [exp^−kt]), where F is fluorescence that varies as a function of time, A is the fit normalized, initial fluorescence (should be 1), k is the rate of fluorescence decay (photobleaching), and t is time in s, or a double exponential decay (F=A1[exp^−k1^t]+A2[exp^−k2^t]), where F is fluorescence that varies as a function of time, A1 and A2 are the fit normalized, initial fluorescence (sum should be 1), k1 and k2 are the rates of fluorescence decay (photobleaching), and t is time in seconds, and data is shown in Table 6.

[1] = FP purification and fluorescence characterization in vitro (spectra, extinction coefficient, quantum yield); type: physicochemical
How it was run: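 His-tagged FPs expressed in E. coli with PCB or BV and Ni-NTA purified; apoproteins loaded in vitro with chromophore in PBS+10% FBS at 37 °C overnight. Extinction coefficient from BV absorbance at 390 nm or BCA protein assay; quantum yield relative to Cy5; photobleaching normalised to 1,000 photons/molecule/s.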

[2] = smURFP/TDsmURFP + 1 or 2 chromophore, Table 7

| Molecule | t50%, time to bleach for 50% emission intensity (PC3 cells) [s] | A1, Double Exportential Decay Fit (PC3 cells) | A2, Double Exportential Decay Fit (PC3 cells) | A, Single Exponential Decay Fit (PC3 cells) | k1, Double Exportential Decay Fit (PC3 cells) [s⁻¹] | k2, Double Exportential Decay Fit (PC3 cells) [s⁻¹] | k, Single Exponential Decay Fit (PC3 cells) [s⁻¹] | mammalian cell photostability t50% (PC3 cells) [s] | Emission Maximum ([1]; Table 5) [nm] | Excitation Maximum ([1]; Table 5) [nm] | Extinction Coefficient ([1]; Table 5) | Quantum Yield ([1]; Table 5) [%] | molecular brightness relative to eGFP ([1]; Table 5) [%] | Emission Maximum [1, 2] [nm] | Excitation Maximum [1, 2] [nm] | Extinction Coefficient [1, 2] | Quantum Yield [1, 2] [%] | other results |
| --- | --- | --- | --- | --- | --- | --- | --- | --- | --- | --- | --- | --- | --- | --- | --- | --- | --- | --- |
| smURFP: small ultra-red fluorescent protein, SEQ ID NO: 13, homodimer, covalently attaches biliverdin (protein, homodimer; biliverdin chromophore; smRUFP Variant Polypeptide) MKTSEQRVNIATLLTENKKKIVDKASQDLWRRHPDLIAPGGIAFSQRDRALCLRDYGWFLHLITFCLLAGDKGPIESIGLISIREMYNSLGVPVPAMMESIRCLKEASLSLLDEEDANETAPYFDYIIKAMS | 410 | 0.23 | 0.72 | 0.75 | 0.00024 | 0.0022 | 0.0008 | 570 | 670 | 642 | 180,000 ^ m^−1cm^−1/chromophore | 18 | 96 | 670 | 642 | 180,000 M^−1 cm^−1 | 18 | average time to bleach 50% emission, t50% (PC3 cells; with BV, mammalian cells (n=5)): 570 s; average time to bleach 50% emission, t50% (PC3 cells; with BVMe2, mammalian cells (n=5)): 340 s; Emission Maximum [1]: 670 nm; extinction coefficient (EC) [1]: 180,000 M^−1cm^−1; increase of BV QY after covalent attachment to smURFP [1]: ~1,400 fold; quantum yield (QY) [1]: 18%; Molecular Brightnes Relative to smURFP ([1]; Table 4): 100%; Quantum Yield ([1]; b72, as fraction): 0.20; brightness relative to most red or far-red fluorescent proteins derived from coral ([1]; biophysical brightness): ~2 fold; Emission Maximum ([1]; evolved APCα FPs, Table 4): 670 nm; Excitation Maximum ([1]; evolved APCα FPs, Table 4): 642 nm; Extinction Coefficient ([1]; evolved APCα FPs, Table 4): 180,000 M^−1 cm^−1; Quantum Yield ([1]; evolved APCα FPs, Table 4): 18%; excitation (absorption) maximum ([1]; running text and figure legends): 642 nm |
| smURFP + BVMe2: smURFP with a single biliverdin dimethyl ester chromophore (protein, left off: small tags and cut ends, smURFP with a single biliverdin dimethyl ester chromophore) MKTSEQRVNIATLLTENKKKIVDKASQDLWRRHPDLIAPGGIAFSQRDRALCLRDYGWFLHLITFCLLAGDKGPIESIGLISIREMYNSLGVPVPAMMESIRCLKEASLSLLDEEDANETAPYFDYIIKAMS | 190 | 0.42 | 0.57 | 0.73 | 0.020 | 0.0012 | 0.0015 | 340 | 672 | 646 | 65,000^ m^−1cm^−1/chromophore | 12 | 23 | 672 | 646 | 65,000 M^−1 cm^−1 | 12 | – |
